Test results reported in article PMC9861546.

How the values were obtained:
[1] = biological target: chimeric L1:T20 capsid protein (HPV16 L1 with the HIV-1 T20 peptide in the DE loop), VLPs (human papillomavirus type 16 | HIV-1) (UniProt P03101); test: cross-linking; disulfide cross-linking seen by non-reducing SDS-PAGE; VLPs in Laemmli sample buffer without or with 5% 2-mercaptoethanol, room temperature, 24 h; blot with anti-HPV16 L1 CAMVIR-1
[2] = biological target: chimeric L1:P18I10 capsid protein (HPV16 L1 with the HIV-1 P18I10 peptide in the DE loop), VLPs (human papillomavirus type 16 | HIV-1) (UniProt P03101); test: as above

| Substance | percent of L1 disulfide bonded into dimers or pentamers [1] [%] | percent of L1 disulfide bonded into dimers or pentamers [2] [%] |
| --- | --- | --- |
| chimeric L1:T20 capsid protein (HPV16 L1 with the HIV-1 T20 peptide in the DE loop), VLPs (from UniProt P03101 1-129; P03101 137-505) | 70 | – |
| chimeric L1:P18I10 capsid protein (HPV16 L1 with the HIV-1 P18I10 peptide in the DE loop), VLPs (from UniProt P03101 1-129; P03101 137-505) | – | 70 |
